In article PMC3510022 (Molecular Biology of the Cell, 2012) one finds binding result and Kd data, which are given here for seven molecules.

T1: His6-Sec22 cytoplasmic domain (UniProt P22214 1-192)
T1 sequence: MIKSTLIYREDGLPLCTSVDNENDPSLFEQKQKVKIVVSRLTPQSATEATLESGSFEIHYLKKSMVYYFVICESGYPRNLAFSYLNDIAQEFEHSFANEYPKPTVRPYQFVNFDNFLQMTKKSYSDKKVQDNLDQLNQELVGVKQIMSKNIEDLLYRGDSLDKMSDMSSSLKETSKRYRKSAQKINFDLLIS

T2: purified Vps33 (S. cerevisiae, UniProt P20795 1-691)
T2 sequence: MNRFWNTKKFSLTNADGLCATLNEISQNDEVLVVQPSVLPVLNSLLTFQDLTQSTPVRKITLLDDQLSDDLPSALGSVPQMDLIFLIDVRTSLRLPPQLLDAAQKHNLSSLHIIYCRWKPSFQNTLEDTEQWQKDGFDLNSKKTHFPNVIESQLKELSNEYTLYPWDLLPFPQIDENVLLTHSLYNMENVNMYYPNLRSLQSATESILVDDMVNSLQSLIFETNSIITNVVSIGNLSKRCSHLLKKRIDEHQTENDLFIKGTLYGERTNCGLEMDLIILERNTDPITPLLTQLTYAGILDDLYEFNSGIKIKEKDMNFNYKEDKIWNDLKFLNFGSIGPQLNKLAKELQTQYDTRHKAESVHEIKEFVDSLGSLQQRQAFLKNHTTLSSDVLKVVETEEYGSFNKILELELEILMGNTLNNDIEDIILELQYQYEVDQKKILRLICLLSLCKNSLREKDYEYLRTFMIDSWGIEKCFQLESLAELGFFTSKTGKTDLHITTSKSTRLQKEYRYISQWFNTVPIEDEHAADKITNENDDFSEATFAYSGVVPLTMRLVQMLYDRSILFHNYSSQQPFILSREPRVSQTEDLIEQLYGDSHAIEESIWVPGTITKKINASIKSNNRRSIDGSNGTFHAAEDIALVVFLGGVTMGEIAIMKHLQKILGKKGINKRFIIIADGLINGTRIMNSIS

T3: His6-Vam7 (S. cerevisiae, UniProt P32912 1-316)
T3 sequence: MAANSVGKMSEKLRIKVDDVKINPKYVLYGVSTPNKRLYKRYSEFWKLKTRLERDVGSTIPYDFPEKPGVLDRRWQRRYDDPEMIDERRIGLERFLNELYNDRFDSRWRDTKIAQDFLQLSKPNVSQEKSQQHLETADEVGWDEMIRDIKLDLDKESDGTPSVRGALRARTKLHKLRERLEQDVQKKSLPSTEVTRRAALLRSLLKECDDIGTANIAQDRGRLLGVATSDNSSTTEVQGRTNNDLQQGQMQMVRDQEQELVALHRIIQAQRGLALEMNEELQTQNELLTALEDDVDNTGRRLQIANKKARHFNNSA

B1: GST-Sed5 SNARE domain (residues 170–319) (domain or fragment)
chain: ANKDRWQKLTTDTGHAPADDQTQSNHAADLTTYNNSNPFMTSLLDESSEKNNNSSNQGELSFPQNDSQLMLMEEGQLSNNVYLQERNRAVETIESTIQEVGNLFQQLASMVQEQGEVIQRIDANVDDIDLNISGAQRELLKYFDRIKSNR
B2: minimal SNARE complex lacking the N-terminal domains of Vam3 and Vam7 (complex)
chain 1: SQEELDFQTIIHQERSQQIGRIHTAVQEVNAIFHQLGSLVKEQGEQVTTIDENISHLHDNMQNANKQLTRADQHQRDRNKCGK
chain 2: PSTEVTRRAALLRSLLKECDDIGTANIAQDRGRLLGVATSDNSSTTEVQGRTNNDLQQGQMQMVRDQEQELVALHRIIQAQRGLALEMNEELQTQNELLTALEDDVDNTGRRLQIANKKARHFNNSA
chain 3: SSLLISYESDFKTTLEQAKASLAEAPSQPLSQRNTTLKHVEQQQDELFDLLDQMDVEVNNSIGDASERATYKAKLREWKKTIQSDIKRPLQSLVDSGDRDRLFGDLNASNIDDDQRQQLLSNHAILQKSGDRLKDASRIANETEGIGSQIMMDLRSQRETLENARQTLFQADSYVDKSIKTLKTMTRRLVANK
chain 4: MKRFNVSYVEVIKNGETISSCFQPFQKNENYGTITSANEQITPVIFHNLIMDMVLPKVVPIKGNKVTKMSMNLIDGFDCFYSTDDHDPKTVYVCFTLVDMPKILPIRILSGLQEYESNATNELLSSHVGQILDSFHEELVEYRNQTLNSSGNGQSSNGNGQNTISDIGDATEDQIKDVIQIMNDNIDKFLERQERVSLLVDKTSQLNSSSNKFRRKAVNIKEIMWWQKVKN
B3: His6-Nyv1 cytoplasmic domain (domain or fragment)
chain: B2 chain 4
B4: Vam3 SNARE domain (residues 182–264) fused C-terminally to GST (domain or fragment)
chain: B2 chain 1
B5: His7-MBP-Vti1 cytoplasmic domain (domain or fragment)
chain: B2 chain 3
B6: Vam3 cytoplasmic domain (residues 1–264) fused C-terminally to GST (domain or fragment)
chain: MSFFDIEAQSSKGNSQQEPQFSTNQKTKELSNLIETFAEQSRVLEKECTKIGSKRDSKELRYKIETELIPNCTSVRDKIESNILIHQNGKLSADFKNLKTKYQSLQQSYNQRKSLFPLKTPISPGTSKERKDIHPRTEAVRQDPESSYISIKVNEQSPLLHNEGQHQLQLQEEQEQQQQGLSQEELDFQTIIHQERSQQIGRIHTAVQEVNAIFHQLGSLVKEQGEQVTTIDENISHLHDNMQNANKQLTRADQHQRDRNKCGK
B7: His6-Bet1 cytoplasmic domain (domain or fragment)
chain: MSSRFAGGNAYQRDTGRTQLFGPADGSNSLDDNVSSALGSTDKLDYSQSTLASLESQSEEQMGAMGQRIKALKSLSLKMGDEIRGSNQTIDQLGDTFHNTSVKLKRTFGNMMEMARR

Test in all cases: pull-down
Assay [1] concerns the target T1, His6-Sec22 cytoplasmic domain.
Assay [2] addresses T2, purified Vps33.
For assay [3], the target named is B6.
For assay [4], the target named is B5.
The target in assay [5] is B3.
The target in assay [6] is T3, His6-Vam7.
Assay [7] has as its target B1.

For B1, the binding result in assay [1] is “binds”.

One may read the Kd as the equilibrium constant for the complex coming apart. In turn, B2 returned a Kd in assay [2] of 2800 nM.

Turning to B3, the binding result in assay [3] is “binds”.

Take B4: the binding result in assay [4] and in assay [5] was “binds” each time.

In the case of B5, the binding result in assay [3] is reported as “binds”.

For B6, the binding result in assay [6] is listed as “binds”.

For the molecule B7, the binding result in assay [7] is listed as “binds”.
